Results from patent US20250215412A1 (NOVOZYMES A S, published 2025).

Experiments:
Test in all cases: cell-based or functional assay
[1] = target: T1, Chryseobacterium sp-62563 deamidase polypeptide (second polypeptide, deamidase domain), wildtype (Chryseobacterium sp-62563)
T1 chain: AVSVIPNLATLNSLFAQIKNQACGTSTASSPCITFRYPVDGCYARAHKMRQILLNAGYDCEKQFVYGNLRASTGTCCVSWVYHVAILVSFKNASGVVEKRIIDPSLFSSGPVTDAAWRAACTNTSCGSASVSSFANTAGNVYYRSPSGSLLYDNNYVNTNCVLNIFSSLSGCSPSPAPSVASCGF

[2] = target: T2, Chryseobacterium sp-62563 deamidase C169S (Chryseobacterium sp-62563)
T2 chain: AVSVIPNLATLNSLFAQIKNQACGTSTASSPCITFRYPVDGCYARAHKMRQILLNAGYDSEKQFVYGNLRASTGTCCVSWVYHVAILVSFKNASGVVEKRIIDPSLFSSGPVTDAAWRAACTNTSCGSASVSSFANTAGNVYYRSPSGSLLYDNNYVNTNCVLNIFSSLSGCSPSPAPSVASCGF

[3] = target: T3, Chryseobacterium sp-62563 deamidase V111A (Chryseobacterium sp-62563)
T3 chain: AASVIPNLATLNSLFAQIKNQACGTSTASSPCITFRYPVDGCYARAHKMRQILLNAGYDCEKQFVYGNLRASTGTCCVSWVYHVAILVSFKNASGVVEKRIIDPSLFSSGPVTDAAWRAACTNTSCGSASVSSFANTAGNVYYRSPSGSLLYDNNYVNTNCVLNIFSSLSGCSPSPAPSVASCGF

[4] = target: T4, Chryseobacterium sp-62563 deamidase C230S (Chryseobacterium sp-62563)
T4 chain: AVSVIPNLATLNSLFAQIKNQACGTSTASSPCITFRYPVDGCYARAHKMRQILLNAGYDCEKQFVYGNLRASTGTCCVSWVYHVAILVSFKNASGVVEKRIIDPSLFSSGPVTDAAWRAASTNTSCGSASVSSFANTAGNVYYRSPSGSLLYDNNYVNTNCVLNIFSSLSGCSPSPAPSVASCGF

[5] = target: Chryseobacterium sp-62563 deamidase A131* (Chryseobacterium sp-62563)
[6] = target: Chryseobacterium sp-62563 deamidase V148* (Chryseobacterium sp-62563)
[7] = target: Chryseobacterium sp-62563 deamidase D262* (Chryseobacterium sp-62563)
[8] = target: T5, Chryseobacterium sp-62563 deamidase V190F (Chryseobacterium sp-62563)
T5 chain: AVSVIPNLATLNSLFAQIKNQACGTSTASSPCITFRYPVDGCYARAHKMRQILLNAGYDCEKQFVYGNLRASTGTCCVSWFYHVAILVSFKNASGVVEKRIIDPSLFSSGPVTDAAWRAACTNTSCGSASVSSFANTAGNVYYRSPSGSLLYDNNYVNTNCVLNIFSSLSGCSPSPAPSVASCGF

[9] = target: T6, Chryseobacterium sp-62563 deamidase V190G (Chryseobacterium sp-62563)
T6 chain: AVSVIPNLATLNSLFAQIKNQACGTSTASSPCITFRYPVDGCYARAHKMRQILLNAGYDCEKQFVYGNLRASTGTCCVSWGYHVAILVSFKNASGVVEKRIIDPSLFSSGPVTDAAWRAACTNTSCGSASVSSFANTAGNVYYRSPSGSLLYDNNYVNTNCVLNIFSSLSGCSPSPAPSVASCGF

[10] = target: T7, Chryseobacterium sp-62563 deamidase L260K (Chryseobacterium sp-62563)
T7 chain: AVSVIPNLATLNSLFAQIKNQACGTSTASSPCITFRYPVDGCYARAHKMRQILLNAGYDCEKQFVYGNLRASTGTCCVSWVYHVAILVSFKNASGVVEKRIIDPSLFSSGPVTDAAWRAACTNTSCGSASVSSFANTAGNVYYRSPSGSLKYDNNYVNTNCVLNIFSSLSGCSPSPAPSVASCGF

[11] = target: T8, Chryseobacterium sp-62563 deamidase V190M (Chryseobacterium sp-62563)
T8 chain: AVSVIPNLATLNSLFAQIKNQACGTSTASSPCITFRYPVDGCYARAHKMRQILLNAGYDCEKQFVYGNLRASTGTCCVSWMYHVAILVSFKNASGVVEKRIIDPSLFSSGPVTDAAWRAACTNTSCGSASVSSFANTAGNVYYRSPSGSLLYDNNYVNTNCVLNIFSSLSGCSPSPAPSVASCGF

[12] = target: T9, Chryseobacterium sp-62563 deamidase V190P (Chryseobacterium sp-62563)
T9 chain: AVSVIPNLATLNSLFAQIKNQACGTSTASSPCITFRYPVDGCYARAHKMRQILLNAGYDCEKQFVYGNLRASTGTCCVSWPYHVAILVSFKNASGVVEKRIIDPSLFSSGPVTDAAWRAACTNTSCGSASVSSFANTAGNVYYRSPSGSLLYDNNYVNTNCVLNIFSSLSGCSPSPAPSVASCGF

[13] = target: T10, Chryseobacterium sp-62563 deamidase V190D (Chryseobacterium sp-62563)
T10 chain: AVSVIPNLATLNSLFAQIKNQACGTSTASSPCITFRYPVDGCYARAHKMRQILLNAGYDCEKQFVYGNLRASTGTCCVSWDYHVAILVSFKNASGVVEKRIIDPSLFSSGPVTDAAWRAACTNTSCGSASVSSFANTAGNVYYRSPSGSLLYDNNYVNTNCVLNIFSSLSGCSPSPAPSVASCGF

[14] = target: T11, Chryseobacterium sp-62563 deamidase L260E (Chryseobacterium sp-62563)
T11 chain: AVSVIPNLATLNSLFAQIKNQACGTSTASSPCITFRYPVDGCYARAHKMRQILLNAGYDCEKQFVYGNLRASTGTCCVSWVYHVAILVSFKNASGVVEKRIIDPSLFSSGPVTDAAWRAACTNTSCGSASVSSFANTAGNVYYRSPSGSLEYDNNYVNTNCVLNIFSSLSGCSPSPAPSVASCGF

B1: Chryseobacterium sp-62563 propeptide (first polypeptide, propeptide domain), wildtype (other)
chain: NQDPNLVAKESNETAMKDFGKTVPVGIEKEDGKFKISFMVTAQPYEIKDSKENAAYISMIKTAVENETPIHVFLKANTNEIAKVDKATDDDIRYFKSVFTKEVKEENRK
- NanoDSF thermal unfolding temperature [1]: 85.3 ° C.
- Leakage activity [2]: 0%
- Leakage activity [3]: 0%
- Leakage activity [4]: 13%
- NanoDSF thermal unfolding temperature [5]: 79.1 ° C.
- NanoDSF thermal unfolding temperature [6]: 69.2 ° C.
- NanoDSF thermal unfolding temperature [7]: 77.7 ° C.
- Relative activity of maturated deamidase [8]: ≥ 100 % initial rate
- Relative activity of maturated deamidase [9]: ≥ 100 % initial rate
- Relative activity of maturated deamidase [10]: 73 % initial rate
- Relative activity of maturated deamidase [11]: 44 % initial rate
- Relative activity of maturated deamidase [12]: 32 % initial rate
- Relative activity of maturated deamidase [13]: 30 % initial rate
- Relative activity of maturated deamidase [14]: 53 % initial rate
